# According to US20170240629A1 (Hoffmann-La Roche, published 2017):
# Like-named read-outs stand apart in the source and are kept apart here.
# T1: ANG2 (UniProt O15123 68-496, limits assumed)
# T1 sequence (looked up): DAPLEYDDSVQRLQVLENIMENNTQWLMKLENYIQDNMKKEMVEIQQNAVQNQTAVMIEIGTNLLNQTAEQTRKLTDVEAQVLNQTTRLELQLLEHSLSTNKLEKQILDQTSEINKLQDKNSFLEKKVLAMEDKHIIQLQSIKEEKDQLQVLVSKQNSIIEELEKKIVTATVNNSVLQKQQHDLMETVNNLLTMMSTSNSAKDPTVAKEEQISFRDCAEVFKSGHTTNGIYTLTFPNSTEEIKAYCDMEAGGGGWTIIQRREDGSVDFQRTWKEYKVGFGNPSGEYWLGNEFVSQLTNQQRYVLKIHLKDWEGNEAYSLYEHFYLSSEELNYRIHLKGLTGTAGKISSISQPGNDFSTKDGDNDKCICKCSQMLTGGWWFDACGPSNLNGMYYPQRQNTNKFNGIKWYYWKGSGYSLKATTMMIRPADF
# T2: human ANG2-RBD-mouse Fc-region fusion (human, UniProt O15123 275-496, limits assumed)
# T2 construct: domain: RBD; also called human ANG2-RBD-murine Fc-region fusion; not shown: mouse Fc-region
# T2 sequence (looked up): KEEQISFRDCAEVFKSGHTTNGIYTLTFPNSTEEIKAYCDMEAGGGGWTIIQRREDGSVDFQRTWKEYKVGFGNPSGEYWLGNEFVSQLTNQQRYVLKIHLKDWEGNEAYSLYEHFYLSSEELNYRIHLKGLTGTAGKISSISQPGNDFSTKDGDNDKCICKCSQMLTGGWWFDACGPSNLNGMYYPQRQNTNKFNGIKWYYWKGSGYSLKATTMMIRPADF
# B1: antibody 0107 (Fab, V domains shown)
# VH: EVQLVESGGGLVQPGGSLRLSCAASGFTFSSYWMSWVRQAPEKGLEWVSTISDGGGLTYYADSVKGRFTISRDNAKNSLYLQMNSLRAEDTAVYYCAESGGYTDWLFGYWGQGTLVTVSS
# VL: not shown
# B2: antibody 0031 (bispecific antibody, V domains shown)
# VH 1: QVQLVQSGAEVKKPGASVKVSCKASGYTFTGYYMHWVRQAPGQGLEWIGYISSYNAFTTYNQKFRGRATFTVDTSISTAYMELSRLRSDDTAVYYCVRSDYYGTSLYWGQGTLVTVSS
# VL 1: EIVLTQSPATLSLSPGERATLSCRASSSVSYMHWSQQKPGQAPRLLIYSTSNLASGIPARFSGSGSGTDFTLTISSLEPEDFAVYYCHQWSNYYTFGQGTKLEIK
# VH 2: not shown
# VL 2: SYVLTQPPSVSVAPGQTARITCGGNNIGSKSVHWYQQKPGQAPVLVVYDTSDRPSGIPERFSGSNSGNTATLTISRVEAGDEADYYCQVWDSSSDHWVFGGGTKLTVLSS
# notes: CrossMab; also called anti-IL-1beta/ANG2 antibody; bispecific anti-ANG2/IL-1beta antibody
# B3: PDGF-B-mumAb (antibody, V domains shown)
# VH: QVQLQQSGAELMKPGASVKISCKATGYTFSSYWIEWVKQRPGHGLEWIGEILPGSGSTNYNEKFKVKATFTADTSSNTAYMQLSSLTSEDSAVYYCAQTTQDFDSWGQGTTLTVSS
# VL: DIVLTQSPGSLAVSLGQRATISCRASESVDIYGYSFMHWYQQKPGQPPKLLIYRASNLESGIPARFSGSGSRTDFTLTINPVEADDVATYYCQQSNEDPRTFGGGTKLEIK
# notes: Murine antibody; also called murine anti-human PDGF-B antibody
# B4: PDGF-B-mumAb Fab (Fab, V domains shown)
# VH: QVQLQQSGAELMKPGASVKISCKATGYTFSSYWIEWVKQRPGHGLEWIGEILPGSGSTNYNEKFKVKATFTADTSSNTAYMQLSSLTSEDSAVYYCAQTTQDFDSWGQGTTLTVSS
# VL: DIVLTQSPGSLAVSLGQRATISCRASESVDIYGYSFMHWYQQKPGQPPKLLIYRASNLESGIPARFSGSGSRTDFTLTINPVEADDVATYYCQQSNEDPRTFGGGTKLEIK
# notes: Fab fragment of PDGF-B-mumAb
# Experiments:
# human PDGF-BB [1] = molecular target: T3, human PDGF-BB (human, UniProt P01127 82-190); test: SPR; apparent KD* of the Fab
# T3 construct: also called huPDGF-BB
# human PDGF-BB [2] = molecular target: T3, human PDGF-BB; test: SPR; Fab
# human PDGF-BB [3] = molecular target: T3, human PDGF-BB; test: SPR (BIAcore T200); PDGF-BB coupled on CM3 chip, Fab injected
# ANG2 = molecular target: T1, ANG2; test: cell-based or functional assay
# human IL-1beta [4] = molecular target: T4, human IL-1beta (human, UniProt P01584 117-269); test: SPR (BIAcore T200); antibody captured by anti-human Fc, human IL-1beta injected (Example 52); parameters: t 1/2: unit not given here
# [5] = molecular target: T2, human ANG2-RBD-mouse Fc-region fusion; test: SPR (BIAcore T200); ANG2-RBD-mouse Fc captured, antibody injected (Example 52)
# Method: Binding of the bispecific antibody to human ANG2-RBD-mouse Fc-region fusion was investigated by surface plasmon resonance using a BIACORE T200 instrument (GE Healthcare). […] HBS-N (10 mM HEPES, 150 mM NaCl pH 7.4, GE Healthcare) was used as running buffer during the immobilization procedure. For the following kinetic characterization, sample and running buffer was HBS-P (10 mM HEPES, 150 mM NaCl pH 7.4, 0.05% Surfactant P20; GE Healthcare). The flow cell was set to 25° C.—and the sample block set to 12° C.—and primed with running buffer twice prior to kinetic characterization.
# human IL-1beta [6] = molecular target: T4, human IL-1beta; test: cell-based or functional assay
# human IL-1beta [7] = molecular target: T4, human IL-1beta; test: cell-based or functional assay; remark: listed apart in the source
# human PDGF-BB [8] = molecular target: T3, human PDGF-BB; test: SPR; whole antibody
# human PDGF-BB [9] = molecular target: T3, human PDGF-BB; test: cell-based or functional assay
# human PDGF-BB [10] = molecular target: T3, human PDGF-BB; test: SPR; apparent KD** of the whole antibody
# human PDGF-BB [11] = molecular target: T3, human PDGF-BB; test: cell-based or functional assay; remark: listed apart in the source
# human PDGF-BB [12] = molecular target: T3, human PDGF-BB; test: competition ELISA; biotinylated human PDGF-BB with antibody on coated Fc-tagged PDGF-BB receptor (competitor)
# Method: The IC₅₀ was calculated with a four parameter logistic model using GraphPad Prism 6.0 software.
# murine PDGF-BB = molecular target: T5, murine PDGF-BB (murine, UniProt P31240 82-190); test: ELISA, antigen coated
# T5 construct: also called muPDGF-BB
# human PDGF-AA = molecular target: T6, human PDGF-AA (human, UniProt P04085 87-211, limits assumed); test: ELISA, antigen coated
# T6 construct: also called huPDGF-AA
# rat PDGF-BB = rat PDGF-BB (rat, UniProt Q05028 74-182); test: ELISA, antigen coated
# human PDGF-BB [13] = molecular target: T3, human PDGF-BB; test: ELISA, antigen coated
# human PDGF-BB [14] = molecular target: T3, human PDGF-BB; test: SPR (BIAcore T200) kinetic screening; PDGF-BB coupled on C1 chip, antibody injected
# human PDGF-BB [15] = molecular target: T3, human PDGF-BB; test: SPR; apparent KD of the Fab
# human PDGF-BB [16] = molecular target: T3, human PDGF-BB; test: SPR (BIAcore T200); PDGF-BB coupled on CM3 chip, Fab injected; remark: listed apart in the source
# human PDGF-BB [17] = molecular target: T3, human PDGF-BB; test: SPR; Fab; remark: listed apart in the source
# T3 sequence (P01127 82-190 limits assumed): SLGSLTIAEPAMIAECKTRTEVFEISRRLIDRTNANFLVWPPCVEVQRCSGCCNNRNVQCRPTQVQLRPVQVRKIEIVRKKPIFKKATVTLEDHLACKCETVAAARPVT
# T5 sequence (P31240 82-190 limits assumed): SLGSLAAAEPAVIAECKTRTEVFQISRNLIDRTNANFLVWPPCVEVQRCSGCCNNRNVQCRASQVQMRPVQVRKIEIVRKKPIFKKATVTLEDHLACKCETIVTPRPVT
# Sequence of rat PDGF-BB (Q05028 74-182 limits assumed): as the sequence (P31240 82-190 limits assumed) above, with I83V, I102V counted along it
binder,measurement,setting,value
B1,Kd,human PDGF-BB [1],2 nM
same,T½,human PDGF-BB [2],31.9 min
same,Kd,human PDGF-BB [3],2 nM
same,koff,human PDGF-BB [3],0.000362 s⁻¹
same,kon,human PDGF-BB [3],195000 M⁻¹ s⁻¹
same,t½,human PDGF-BB [3],31.9 min
B2,"ANG2 specific pTie2-ELISA, activity against the anti-ANG2/VEGF antibody reported in WO 2014/09465",ANG2,6 fold
same,Kd,human IL-1beta [4],0.12 nM
same,koff,human IL-1beta [4],0.000302 s⁻¹
same,kon,human IL-1beta [4],2.56e+06 M⁻¹ s⁻¹
same,t 1/2,human IL-1beta [4],38
same,Kd,[5],8 nM
same,koff,[5],0.00115 s⁻¹
same,kon,[5],145000 M⁻¹ s⁻¹
same,t½,[5],10.1 min
same,"IC50, inhibition of ICAM-1 expression upon IL-1beta stimulation of A549 cells",human IL-1beta [6],0.104 µg/mL
same,"EC50, reduction of IL-6 expression upon IL-1beta stimulation of A549 cells",human IL-1beta [7],0.017 µg/mL
B3,T½,human PDGF-BB [8],47.8 min
same,IC50 Phospho-Inhibition,human PDGF-BB [9],0.0017 µg/mL
same,IC50 Proliferation 3T3,human PDGF-BB [9],0.0551 µg/mL
same,Kd,human PDGF-BB [10],0.042 nM
same,IC50 Phospho-Inhibition,human PDGF-BB [11],0.0017 µg/mL
same,IC50 Proliferation 3T3,human PDGF-BB [11],0.0551 µg/mL
same,IC50,human PDGF-BB [12],0.0122 µg/mL
same,EC50,murine PDGF-BB,0.0088 µg/mL
same,EC50,human PDGF-AA,0.00204 µg/mL
same,EC50,rat PDGF-BB,0.00512 µg/mL
same,EC50,human PDGF-BB [13],0.0163 µg/mL
same,koff,human PDGF-BB [14],0.00045 s⁻¹
same,t½,human PDGF-BB [14],26 min
B4,Kd,human PDGF-BB [15],5 nM
same,Kd,human PDGF-BB [16],5 nM
same,koff,human PDGF-BB [16],0.00201 s⁻¹
same,kon,human PDGF-BB [16],439000 M⁻¹ s⁻¹
same,t½,human PDGF-BB [16],5.75 min
same,T½,human PDGF-BB [17],5.75 min
